T1: human Protein S (human, UniProt P07225 42-676)
T1 construct: also called ProS; ProS1
T1 sequence: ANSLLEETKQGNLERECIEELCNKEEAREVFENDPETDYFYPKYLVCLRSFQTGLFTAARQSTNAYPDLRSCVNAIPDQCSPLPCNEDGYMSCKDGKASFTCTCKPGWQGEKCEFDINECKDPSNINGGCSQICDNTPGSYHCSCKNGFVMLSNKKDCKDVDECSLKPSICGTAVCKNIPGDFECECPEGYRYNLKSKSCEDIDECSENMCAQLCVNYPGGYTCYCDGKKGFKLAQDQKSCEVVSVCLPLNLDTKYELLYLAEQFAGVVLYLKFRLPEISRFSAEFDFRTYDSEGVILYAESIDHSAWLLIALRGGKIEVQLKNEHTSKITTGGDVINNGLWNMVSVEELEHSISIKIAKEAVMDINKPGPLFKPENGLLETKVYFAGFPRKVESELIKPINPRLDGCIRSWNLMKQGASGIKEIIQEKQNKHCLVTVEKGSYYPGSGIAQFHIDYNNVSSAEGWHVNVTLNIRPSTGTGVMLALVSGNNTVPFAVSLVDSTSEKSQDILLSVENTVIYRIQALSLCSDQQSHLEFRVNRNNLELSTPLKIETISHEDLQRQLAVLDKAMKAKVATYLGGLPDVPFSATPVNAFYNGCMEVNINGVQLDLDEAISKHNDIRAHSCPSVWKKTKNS

T2: recombinant heavy chain Protein S (human, UniProt P07225 42-296)
T2 construct: Fragment of Protein S spanning amino acids 42-296, expressed and purified from HEK293 cells; also called Protein S heavy chain; heavy chain of Protein S
T2 sequence: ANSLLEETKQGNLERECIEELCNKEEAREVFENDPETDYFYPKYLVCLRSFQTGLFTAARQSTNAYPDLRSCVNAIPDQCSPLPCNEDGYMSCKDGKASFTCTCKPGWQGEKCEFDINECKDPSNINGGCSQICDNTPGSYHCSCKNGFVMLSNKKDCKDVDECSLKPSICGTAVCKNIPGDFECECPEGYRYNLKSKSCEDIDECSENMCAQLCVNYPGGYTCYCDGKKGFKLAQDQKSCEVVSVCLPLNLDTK


Experiments:
[1] = target: T1, human Protein S; assay: ELISA; plate coated with human Protein S; 1 µg/ml antibody; 1 mM EDTA
Protocol: (§1) Calcium dependence of binding was determined using an ELISA based method. Briefly, high binding ELISA plates were coated with human Protein S. Then, buffer containing 1 μg/ml of antibody was applied to the well with either buffer containing 1 mM EDTA or 1 mM calcium chloride.

[2] = target: T2, recombinant heavy chain Protein S; assay: ELISA; plate coated with recombinant Protein S heavy chain; 1 mM CaCl2
Protocol: Binding to the heavy chain of Protein S was determined using an ELISA based method. Briefly, high binding ELISA plates were coated with recombinant heavy chain Protein S expressed and purified from HEK293 cells. The “heavy chain” of Protein S represents a fragment of Protein S spanning amino acids 42-296. The coated plate was blocked with 1% casein solution. Then, buffer containing […] of antibody was applied to the well with buffer containing 1 mM calcium chloride.

[3] = target: T1, human Protein S; assay: cell-based or functional assay
[4] = target: T1, human Protein S; assay: ELISA; plate coated with human Protein S; 1 µg/ml antibody; 1 mM calcium chloride
Protocol: as §1

[5] = target: T1, human Protein S; assay: BLI Octet; antibody on anti-human Fc probe; Protein S 7.81-500 nM; 4 mM CaCl2
Protocol: (§2) Binding characteristics of the Protein S antibodies were also further characterized using Octet. Using the Octet System (Sartorius), the binding of each antibody to both human and cynomolgus monkey (“cyno” in Table 10) Protein S was determined. The human Fc antibodies were immobilized onto anti-human Fc capture probes by placing the probes into 10 μg/ml antibody solution in 10 mg/ml bovine serum albumin, 20 mM Tris pH 7.0, 150 mM NaCl, and 4 mM calcium chloride. […] Next, the probes were placed into buffer and the dissociation rates were measured.

[6] = target: T3, cynomolgus monkey Protein S (cynomolgus monkey); assay: as above
T3 construct: also called cyno Protein S
Protocol: as §2

[7] = target: T1, human Protein S; assay: SPR Biacore X100; antibody captured by anti-human IgG (Fc); Protein S 2-128 nM; 5 mM CaCl2; 1:1 fit
Protocol: Binding characteristics of the Protein S antibodies were also determined. Binding interaction analysis was obtained by Surface Plasmon Resonance in a Biacore X100 instrument. The human anti-IgG (Fc) antibody was immobilized to the carboxymethylated dextran membrane on the sensor chip surface (CM5) via the free amine method for a contact time of 420 seconds. Human anti-IgG antibody at 25 μg/mL in 0.15 M NaCl was immobilized to 9,785 RU in 10 mM sodium acetate pH 5.0.
Dilution and running buffer were as follows: Hbs−EP+5 mM CaCl₂. Regeneration was obtained by 3 M MgCl₂. Binding constants (ka, kd, and KD) were determined using the Biacore X100 evaluation software, assuming a 1:1 interaction of Protein S and the tested monoclonal antibody under investigation.

| Binder | Binding to Protein S in EDTA (OD) [1] | Binding to heavy chain (OD) [2] | IC50 APC [3] | Binding to Protein S in CaCl2 (OD) [4] | IC50 TFPI [3] | Kd [5] | koff [5] | kon [5] | Kd [6] | koff [6] | kon [6] | Kd [7] | koff [7] | kon [7] |
| --- | --- | --- | --- | --- | --- | --- | --- | --- | --- | --- | --- | --- | --- | --- |
| Antibody 20 (antibody, V domains shown, Human variable region with rat Fc) VH: QVQLQESGPGLVKPSETLSLTCAVSGYSISSGYYWGWIRQPPGKGLDWIGSIYYSGSTYYNPSLKSRVTISVDTSKNQISLKLSSVTAADTAVYYCATTYSDIVTGYYNDAFDIWGQGTMVTVSS VL: EIVMTQSPATLSVSPGERATLSCRASQRINSNLAWYQQKPGQAPRLLIYGASTRATGIPARFSGSGSGTEFTLTISSLQSEDFAAYYCQQYDNWPLTFGGGTKVEIK | 0.26 OD | 1.54 OD | 12.8 nM | 1.93 OD | – | – | – | – | – | – | – | – | – | – |
| Antibody 13 (antibody, V domains shown, Human variable region with rat Fc) VH: QVQLVQSGAEVKKPGSSVKVSCKVSGGTFSSYSISWVRQAPGQGLEWMGGIIPIFGTTNYAQKFQGRVTITADESTSTAYMDLSSLKSEDTAMYYCEGGRVGADFDYWGQGTLVTVSS VL: SSDLTQGPAVSVALGQTVRITCQGDSLRNYYASWYQQKPGQAPVPVIYGKNDRPSGIPDRFSGSISGNTASLTITGAQAEDEAHYYCNSRDSSGNHVVFGGGTKLTVL | 0.48 OD | 1.63 OD | 5.3 nM | 1.77 OD | 51.1 nM | – | – | – | – | – | – | – | – | – |
| Antibody 19 (antibody, V domains shown) VH: QLQLQESGPGLVKPSETLSLTCTVSGGSISSSSYYWGWIRQPPGKGLEWIGNIYYSGNTYYNPSLKSRVTISVDTSKNQFSLKLSSMTAADTAVYYCARCSGYGYSSGRSYFDYWGQETLVTVSS VL: not shown | 0.06 OD | 0.61 OD | 81.2 nM | 1.68 OD | 105 nM | – | – | – | – | – | – | – | – | – |
| Antibody 24 (antibody, V domains shown, Human variable region with rat Fc) VH: QVQLQESGPGLVKPSETLSLTCGVSGGSISSTNWWSWVRQPPGKGLEWIGEIYQTGSTDYDPSLKSRVTISIDKSKNQFSLKLYSVTAADTAVYYCARRFGELDYWGQGTLVTVSS VL: EIVMTQSPATLSVSPGERATLSCRASQSVTSNLAWYQQKPGQAPRLLIYDASTRATGIPARFSGSGSGTEFTLTISSLQSEDFAIYYCQQYNNWPTFGQGTRLEIK | 0.06 OD | 0.71 OD | 17.9 nM | 1.72 OD | 73.6 nM | – | – | – | – | – | – | – | – | – |
| Antibody 16 (antibody, V domains shown, Human variable region with rat Fc) VH: QVQLVESGGGVVQPGRSLRLSCAASGFTFSTYGFHWVRQPPGKGLEWVAVIYYDGINKYYADSVKGRFTISRDNSKNTLFLQMNSLRAEDTAVYYCAESDLDYWGQGTLVTVSS VL: EIVLTQSPATLSLSPGERATLSCRASQSVSIYLAWYQQKPGQAPRLLIYDASNRATGIPARFSGSGSGTDFTLTISSLEPEDFAVYYCQQRSNWPLTFGPGTKVDIK | 0.17 OD | 1.67 OD | 14 nM | 1.95 OD | 46.3 nM | – | – | – | – | – | – | – | – | – |
| Antibody 44 (antibody, V domains shown, Human variable region with rat Fc) VH: QVQLVQSGAEVKKPGASVKVSCKASGYTFTSYYIHWVRQAPGQGLEWMGVTSPSGRSTSFAQKFQGRVTMTRDTSTSAVYMDLDSLRSEDTAVYYCARGGVTIHLERRGYFDYWGQGTLVIVSS VL: not shown | 0.89 OD | 0.48 OD | 492 nM | 1.17 OD | – | – | – | – | – | – | – | – | – | – |
| Antibody 14 (antibody, V domains shown, Human variable region with rat Fc) VH: QVQLQESGPGLVKPSQTLSLTCTVSGGSITSDGYHWSWIRQYPGKGLDWIGYIYYTGNTYYNPSLKSRVTISVGTSQNQFSLKLISVTAADTAVYYCARRLSTGPYFDYWGQGTLVTVSS VL: QSALTQPASVSGSPGQSITISCTGTSSDVGGYEFVSWYQHHPGKAPKLMIYDVSSRPSGVSNRFSGSKSGNTASLTISGLQAEDEADYYCSSYTRSSTVVFGGGARLTVL | 0.75 OD | 2.03 OD | 8.76 nM | 2.03 OD | 73.3 nM | – | – | – | – | – | – | – | – | – |
| Antibody 15 (antibody, V domains shown, Human variable region with rat Fc) VH: EVQLVESGGGLVQPGRSLRLSCAASGFTFDDYAMHWVRQAPGKGLEWVSGITWNSGNIGYADSVKGRFTISRDNAKNSLYLHMNSLRIEDTAFYYCAKGRAVSDTFDIWGQGTMVTVSS VL: SYELNQPPSVSVSPGQTASITCSGDKLGDKYASWYQQKPGQSPVVAIYQNSKRPSGIPERFSASNSGNTATLTISGTQALDEADYYCQAWDSSTWVFGGGTKLTVL | 0.07 OD | 1.78 OD | 13.5 nM | 1.86 OD | 77.3 nM | – | – | – | – | – | – | – | – | – |
| Antibody 3 (antibody, V domains shown, Same variable regions as Antibody 15) VH: EVQLVESGGGLVQPGRSLRLSCAASGFTFDDYAMHWVRQAPGKGLEWVSGITWNSGNIGYADSVKGRFTISRDNAKNSLYLHMNSLRIEDTAFYYCAKGRAVSDTFDIWGQGTMVTVSS VL: SYELNQPPSVSVSPGQTASITCSGDKLGDKYASWYQQKPGQSPVVAIYQNSKRPSGIPERFSASNSGNTATLTISGTQALDEADYYCQAWDSSTWVFGGGTKLTVL | – | – | – | – | – | 0.0542 nM | 8.86e-06 s⁻¹ | 164000 M⁻¹ s⁻¹ | < 0.001 nM | < 1e-07 s⁻¹ | 127000 M⁻¹ s⁻¹ | 2.24 nM | 0.000569 s⁻¹ | 253000 M⁻¹ s⁻¹ |
| Antibody 21 (antibody, V domains shown, Human variable region with rat Fc) VH: QVQLVQSGAEVKKPGSSVKVSCKASGDTFSNHAINWVRQAPGQGLEWMGGYIPIFGTTNSAQKFRGRVTITADKSTNTAYMALSSLRSEDTAVYYCARGGLAGSHYKNYYYDGMDVWGQGTTVTVSS VL: not shown | 1.4 OD | 1.58 OD | 6.23 nM | 1.92 OD | – | – | – | – | – | – | – | – | – | – |
| Antibody 18 (antibody, V domains shown, Human variable region with rat Fc) VH: QVQLQESGPGLVKPSETLSLTCTVSGGSISNYYWNWIRQPPGKGLEWIGYIYYIGITDYNPSLKSRVTISVDTSKNQFSLKVTSVTAADTAVYYCAALSGDHAFDIWGQGTLVTVSS VL: not shown | 0.1 OD | 0.6 OD | 12.8 nM | 1.96 OD | – | – | – | – | – | – | – | – | – | – |

— US20230083243A1 (VEGA THERAPEUTICS, published 2023)
